Experimental data published in the nanobody polyreactivity screen of Harvey et al. (2022).

Assay: yeast display, Sf9 membrane polyspecificity reagent, FACS + sequencing; frameworks hold sequencing errors
Procedure, shortened: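 Using colony PCR, genes from sorted yeast display clones were amplified, then sequenced on MiSeq at 2 × 250 and filtered by CDR length. The clones had been stained with 10% biotinylated, detergent-solubilized Sf9 membrane reagent for 1 hour at 4 °C and sorted by FACS into low and high (top ~1%) gates on anti-HA and streptavidin fluorescence. Polyreactivity labels come from the gate of origin.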

Sequence | polyreactivity (PSR sort gate)
QVQLVESVGGLVQAGGSLRLRCSASGSIFKYNAMGWYRQAPGKVRELVADITRSGGRTYYADSVKGRFTISRDNEKNTVYVQMNSLKTEDTAVYYCYAVTPTTLGDYWGQGTQVTVSS | high polyreactivity
QVQLVESGGGLVQAGGSLRLSCAASGFIFWDYAMGLYRQAPGKERELVAAISDSGGDTYYADSVKGRFTISRDNAKNTVYFQINSLKPEDTAVYYCSADVELWVFRGQQYDYWGQGTQVTVSS | low polyreactivity
QVQLVESGGGLVQAGGSLRLSCAASGSTFRAYAMGWYRQAPGKERELVAAISKRGGSTYYADSVKGRFTISRDNAKYTVYLQMNSLKPEDTAVYYCNAATRSPFDYWGQGTQVTVSS | high polyreactivity
QVQLVESGGGLVQAGGSLRLSCAASGSTFISYAMGWYRQAPGKERELVAAISYRGGSTRYADSVKGRFTISRDNAKNTVYLQMNSLKPEDTAVYYCAAYTRKSHIREYDYWGQGTQVTVSS | high polyreactivity
QVQLQESGGGLVQVGGSLRLSCAASGNIFIYGIMGWNRQAPGKERELVASINLGGITNYADSVKGRFTISRDNAKNTVYLQMISLKPEDTAVYYCAAYVVTGQNYGYWGQGTQVTVSS | low polyreactivity
QVQLVESGRGLVQAGGSLRLRCAASGYTFTRYAMGWYRQAPRKESELVAAISTSGGRTYYSDSEKGRFTISRDNAKNTVYLQMNRLKPEDTAVYSCAAPIRDGRYDYWGQGTQVTVSS | high polyreactivity
QVQLVESGGGLVQAGGSLRLSCAPSGRIFGTYAMGWYRQAPGKERELVASIRSRGGRTYYADSVKGRFTISRDNAKNTVYLQMNSLKPEDTAVYYCAADVGVYYYSFYYWGQGTQVTVSS | high polyreactivity
QVQLVESGGGLVLAGGSLRLSCAASGRTFKKYAMGWYRQAPGKVRELVAAITSGGSTYYADSVKGRFTISRDNAKNTVYLQMNSLKPEDTAVYYCAAASSQHGNTYYYWGQATQVTVSS | high polyreactivity
QVQLVESGGGLVQAGGSLRLSCAASGSTFYANAMGWYRQAPGKERELVAAISWRGGSTYYADSVKGRFTISRDNAKNTVYLQMNSLKPEDTAVYYCNRVQRYIRHGDYWGQGTQVTVSS | high polyreactivity
QVQLVESGGGLVQAGGSLRLSCEASGRIFDDNDMGWYRQAPGKERELVAAISSGDSTKYADSVKGRFTITRDNAKNTVYLQMNSLKPEDTAVYYCAAERNHGLVGSESVGRNDYWGQGTQVTVSS | low polyreactivity
QVQLVESGGGLVQAGGSLRLSCAASGLILSSNAMGWYRQAPGKERELVATISWSGDSTYYADSVKGRFTISRDNAKNTVYLQMNSLKPEDTAVYDCNADHFQWGAGYDYWGQGTQVTVSS | low polyreactivity
QVQLVESGGGLVQAGGSLRLSCAASGSIFEINAKGWYRQAPGKERELVADIRRGDSTNYADSVKGRFTISRDNAKNTVYLQMNSLKPEDTAVYYCAAYHRLFDYDYWGQGTQVTVSS | high polyreactivity
QVQLVESGGGFVQAGGSLRLSCAASGNIFPYNAMGWYRQAPGKERELVAAISSGGSTNYADSVKGRFTISRDNAKNTVYLQLNSLQPEDTAVYYCAAARSGGYDYWGQGTQVTVSS | low polyreactivity
QVQLVESGGCLVQAGGSLRLSCAASGRTFSYYAMGWYRQAPGKVRELVAAISRRGGSTTYADSVKGRFTISRDNAKNTVYLQMNSLKPEDTAVYYCNTYPPAHREYASWGQGTQVTVSS | high polyreactivity
QVQLVESGGGLVQAGGSLRLSCAASGSIFVTYAMGWYRQAPGKERELVAAINYSGGSTYYADSVKGRFTISRDNAKNTVYLQMNSVKPEDTAVYYCAATTRYYSYGYWGQGTQVTVSS | low polyreactivity
QVQLVESGGGLVQAGGSLRLSCAASGSTFIGYAMGWYRQAPGKERELVASISWGGGSTYYADSVKGRFTISRDNAKNTVYLQMNSLKPEDTAVYYCATDGRTYIDFYWGQGTQVTVSS | low polyreactivity
QVQLEESGGGLVQAGGSLRLSCAASGFIFDYYMGWYIQAPGKERELVARISYTGGSTYYADCVKGRFTISRDNAKNTVYLQMNSLKPEDTAVYYCATRGAEAERFASYDFDYWGQGTQVTVSS | low polyreactivity
QDQLVESGGGLVQAGGSLRLSCAAYGRTFVPYAMGWYRQAPGKEREFVAVITWGGGSTYYADSVKGRFTISRDNAKNTVYLQMNSLKPEDTAVYYCAARNRRATGLGSRYGYWGQGTQVTVSS | high polyreactivity
QVQLVESGGGLVQAGGSLRLICAASGITFVYYAMGWYRQAPGKERELVAAISKNSGSTYYADSVKGRFTISRDNAKNTVYLQKNSLNPEDTAVYYCAAEEGYPWVRYNYWGQGTQVTVSS | high polyreactivity
QVQLVESGGGLVQAGGSLRLICAASGSTLYRNAMGWYRQARGKERELVAAISSSGGTTFYADSVKGRFTISRDNAKNTVYLQMNSLKPEDTAVYYCNRTARKLLTVHSSVVGLDYWGQGSQVTVSS | low polyreactivity
QVQLVESGGGLVQAGGSLRLSCAASGIFYRNAMGWYRQAPGKERELVAAISWSGGSTYYADSVKGRFTISRDNAKNSVYLQMNSLKPEDTAFYYCAAVGGRYPSNVVGYYYWGQGTQVTVSS | high polyreactivity
QVQLVESGGGLVQAGGSLRLTCAASGFTFGPYDMGWSRQAPGKERELVAAITDSSGSTHYADSVKGRFTISRDNAKNTVYLQMNSLKPEDTAVYYCAAQLKSHSTYGHDYWGQGTQVTVSS | low polyreactivity

Sequence | polyreactivity (PSR sort gate)
QVQLVESGGGLVQAGGSLRLSCAASGFTFEYYTMGWYRQAPGTERELVAAITKRGGSTYYADSVKGRFTISRDNAKNTVYLQMNSLKPEDTAVYYCAVRKPYSRYTVNYDSWGQGTQVTVSS | high polyreactivity
QVQLVESGGRLRQAGGSLRLSCAASGSTFVSYAMGWYRQAPGKERELVAAISTSGGRSYYADSVKGRFTISRDNAKNTVYLQMNSLKREDTAVYYCAAEHYQRWWPYWYWPYYWGQGTQVTVSS | high polyreactivity
QVHLVETGGALVQAGGSLRISCAASGLTFLDYAMGWYRQSTGKERELGAAITSGGSTNYADSVKGRFTISGDNATTTVYFQMISLKPEDTAVYYCATDLEVSAYDYWGQGNQVTVSS | low polyreactivity
QVQLVESGGGLVQAGASLRLSCAASGSIFRRNAMGWYRQAPGKERELVAAISYRGGSTNYADSVKGRFTISRDNAKNTVYLQMNSLKPEDTAVYYCAAKIYRSSGQGMDYWGQGTQVTVSS | low polyreactivity
QVQLVESGGGLVQAGGSLRLSCAASGSTFESNFMGWYRQAPGKEWELVAAITWTGGSTYYADSVKGRFTISRDNAKNNVYLQMNSLKPVDTAVYYCATYDPGPLLGSDYWGHGTQVTVSS | low polyreactivity
QVQLVESGGGLVQAGGSLRLSCAASGFIFRLYAMGWYRQAPGKERELVAAISRGGSTTYADSVKGRFTISRDNAKNTVYLQMNSLKPEDTAVYYCATEGDYVAYLYDYWGQGTQVTVSS | low polyreactivity
QVQLVESGGGLVQAGGRLRLSCAASGRIFPDNTMGWYRQAPGKERELVAVITYSGGSTYYADSVKGRFTISRDNAKNTVYLQMNSLKPEDTAVYYCAARDYYIWFAEVDYWGQGTQVTVSS | low polyreactivity
QVQLVESGGGLVPAGGSLRLSCAASGSIFEGNAMGWYRQAPGKERELVAAISTTGGITYYADSVKGRFTISRDNAKNTVYLQMNSLKPEETAVYYCAADPSQPRIDSSNYDYWGQGTQVTVSS | low polyreactivity
QVQLVESGGGLVQAGGSLRISCAASGRTFGPYAMGWYIQAPGKEREFVAAISYSGGSTYYADSVKGRFTISRDNAKNTVYLQMNSLKPEDTAVYYCAVDIDSNSGTRDYWGQGTQVTVSS | low polyreactivity
QVQLVESGGGLVQAGGSLRLSSAASGRTFYRNAIGWYRQAPGKERELVAAISSGSTTYYADSVKGRFTISRDNAKNTVYLQMNSLKPEDTAVYYCATTLRQYKPPSGRDYWGQGTQVTVSS | low polyreactivity
QVQLVESGGGLVQAGGSLRLSSAASGSTLGVYAMGWYRQAPGKERELVAGITRGGGRTYYADSVKGRFTISRENAKNTVYLQMNSLKPEDTAVYYCNKGQRGPYDYWGQGTQVTVSS | high polyreactivity
QVQLVESGGGLVQAGGSLRLSCAASGRIFKRYDMGWYRQAPGKERELVAAINRSGGSTYYADSVKGRFTISRDNAKNTVYLQMNSLKPEDTAVYYCAARYRYDGRYDYWGQGTQVTVSS | high polyreactivity
QVQLLESGGGLVQAGGSLRLSCAASGLTIWRYAMGWYRQAPGKEREFVATISHNGGRTYYADSVKGRFTISRDNAKNSVYLQMNSLKPEDTAVYYCAADDWRWGYDYWGQGTQVTVSS | high polyreactivity
QVQLVESGGGLDQAGGSLRLSCPASGSTFLNNAMGRYRQAPGKERELVATITSGGITNYADSVKGRFTISRDNAKNCVYLQMNSLKPEDTAVYYCNADTWGFTYYYWGQGTQVTVSS | low polyreactivity
QVQLVESGGGLVQAGGSLRLSCAASGRILYGYAMGWYRQAPGKERELVASIPWSGGSTYADSVKGRFTISRDNAKNTVYLQMNSLKPEDTAVYYCATRRGPKWQWLTYGYWGQGTQVTVSS | low polyreactivity
QVQLVESGGGLVQAGGSLRLSCAASGRTFVWYAMGWYRHAPGKERELVAAISRSGGSTYYADSVKGRFTISRDNAKNTVYLQMNSLKPEDTAVYYCNAQWYVYDYYEFDYWGQGTQVTVSS | high polyreactivity
QVQLVESGGGLVQAGGSLRLSCAASGSTFGRYAMGWYRQAPGKEREMVAGITYGSTYYADSVKGRFTISRDNAKNTVYLQMNSLKPEDTAVYYCAADLSYTCVHGYRSDTLMDYWGQGTQVTVSS | low polyreactivity
QVQLVESGGGLVQAGGSLRLSCAASGSNISQNAMGWYRQAPGKERELVASITYSGGSTYYADSVKGRFTISRDNAKNTVYLQMNSLKPEVTAVYYCAADVRYSSRFYYWGQGTQVTVSS | high polyreactivity
QVQLVESGGGLVQAGGSLRLSFAASGFIIGRNAMGWYRQAPGKEREMVAAITSGGNTYYADSVKGRFTISRDNAKNTVYLQMNSLKPEDTAVYYCAARRRYPLVDAGYYWGQGTQVTVSS | high polyreactivity
QVQLVESGGGLVQAGGSLRLSCAASGSIVDYNAMGGYRQAPGKERELVAAISVNGGNTYYADSVKGRFTISRDYAKNTVYFQMNTLKPEDTAVYYCAADSYGGSKYDYWGQGTQVTLSS | low polyreactivity
QVQLVESGGGLVQAGGSLRIICAASGRTLSGYAMGWYRQAPGKERELVAAISSDGRTYYADSVKGRFTISRDNAKNTVYLQMNSLKPEDTAVYYCAARANPYVLKYYYWGQGTQVTVSS | high polyreactivity
